One series relates to L3 TM larvae. In kind it is cell-based, Trichuris muris. How it is done: Synthetic reduced (r-)Defa1, r-Defa2, r-Defa4, r-Defa5 and r-Defa6, r-Defa20, r-Defa21, r-Defa23 and r-Defa24 were purchased from Medical and Biological Laboratories Co., Ltd. (Nagoya, japan) and stored at -30°C until use. Three pairs of disulfide bonds were introduced into synthetic Defa1 and Defa4 (Medical and Biological Laboratories Co., Ltd., Nagoya, japan) by air oxidation as described previously. Using reverse-phase high-performance liquid chromatography (RP-HPLC) reaction mixtures were applied to C-18 columns (SepaxHP-C18, 4.6 x 150mm, […]; Sepax Technologies, Newark, DE, USA) in 0.1% trifluoroacetic acid with an 18–36% acetonitrile gradient developed over 30min at 1ml/min. […] Disulfide bond status of Defas was evaluated by acid-urea PAGE and MALDI-TOF MS (Voyager-DE PRO; Applied Biosystems, Carlsbad, Calif., USA) as described previously. […]
Supplementary file pone.0211244.s012.pdf: S12 Fig Cytotoxic activity of α-defensins toward L3 TM larvae. Cytotoxic activity of reduced (r-) α-defensins 5, 20, 21, 23 and 24 against L3 TM larvae was measured by lactate dehydrogenase release assay. […]
Cytotoxic activity of reduced (r-) α-defensins 1, 2, 4, 5 and 6 against L3 TM larvae was measured by lactate dehydrogenase release assay. […]
Cytotoxic activity of reduced (r-) and oxidized (o-) α-defensins 1 and 4 against L3 TM larvae was measured by lactate dehydrogenase release assay. […]

Series [1] has as its system LPS; macrophage production of TNF. As to conditions: reduced peptide; ref [27]; cited from earlier work. An excerpt: Given the prominence of α-defensin and α-defensin-related genes in the Mina genetic perturbation signature we considered whether they might contribute to the IEC-intrinsic roles of Mina in response to TM infection. Upregulation of α-defensins in Mina^ΔIEC mice could promote accelerated TM expulsion via multiple non-mutually exclusive mechanisms. First, it is well established that α-defensins can shape commensal microbiota diversity. Thus, α-defensins may act indirectly by altering commensal microbiota diversity, thereby eliminating niches essential for, or creating ones hostile toward, ...

Regarding “Defa1: Synthetic reduced mouse α-defensin 1 peptide purchased from Medical and Biological Laboratories (LRDLVCYCRSRGCKGRERMNGTCRKGHLLYTLCCR; Alpha-defensin 1 reduced; UniProt P11477 59-93, looked up)”, the “cytotoxicity against L3 TM larvae after oxidation of the peptide (oxidized, o-, form with three disulfide bonds), S14 Fig” value in the series on L3 TM larvae was “abolished by oxidation”.

B1: HD5: Reduced human enteric defensin 5, literature result (peptide, UniProt Q01523 20-94, looked up)
Defensin alpha 5: ESLQERADEATTQKQSGEDNQDLAISFAGNGLSALRTSGSQARATCYCRTGRCATRESLSGVCEISGRLYRLCCR
modifications: Defensin-5 reduced form
notes: Reduced human enteric defensin 5, literature result
Turning to B1, in series [1], the LPS neutralization result is given as “can neutralize LPS” and the “macrophage production of TNF” value was “suppress”.

The values are drawn from article PMC6391002, “Myc-induced nuclear antigen constrains a latent intestinal epithelial cell-intrinsic anthelmintic pathway” (PLoS ONE, 2019).
